Measurements from patent publication US5739276.
Several values for one entry are separate records, joined by “and”; a condition that tells them apart may be missing. Identical values can stand only once.

Legend:
[1] = molecular target: rat brain Na channel (voltage-sensitive sodium channels in rat brain membranes) (rat); assay: binding of 125I-δ-conotoxin TxVIA to rat brain membranes, no competitor
[2] = molecular target: rat brain Na channel (voltage-sensitive sodium channels in rat brain membranes) (rat); assay: competition on rat brain membranes; label (competitor) 125I-δ-conotoxin TxVIA
[3] = molecular target: rat brain Ca^2+ channels (ω-conotoxin GVIA binding site in rat brain membranes) (rat); assay: competition on rat brain membranes; label (competitor) 125I-ω-conotoxin GVIA
[4] = molecular target: ω-conotoxin GVIA binding sites on brain membrane preparations from frogs, chicks and rats
[5] = molecular target: rat brain Ca^2+ channels (ω-conotoxin GVIA binding site in rat brain membranes) (rat); assay: binding of 125I-ω-conotoxin GVIA to rat brain membranes, no competitor

Substance	cpm bound [1]	cpm bound [2]	cpm bound [3]	percent of ^125 I-GVIA displaced [4]	cpm bound [5]
^125 I!δ-conotoxin TxVIA (peptide)	4890 cpm				
δ-conotoxin PVIA (amidated) (peptide)		889 cpm	4930 cpm		
δ-conotoxin TxVIA (peptide)		925 cpm	4720 cpm		
ω-conotoxin GVIA (from UniProt P01522) (peptide)		4710 cpm	954 cpm	90% and 98%	
^125 I-labeled ω-conotoxin GVIA (from UniProt P01522) (peptide)					4400 cpm
δ-conotoxin PVIA (nonamidated) (peptide)		848 cpm	4390 cpm		
